From the supplement of paper PMC10065799, “High-throughput profiling of sequence recognition by tyrosine kinases and SH2 domains using bacterial peptide display” (eLife, 2023)

How the values were obtained:
[1] = tested on: AncSZ; assay: phosphorylation enrichment, bacterial display (enrichment ratio); higher = better substrate or ligand; peptides without Tyr show the background
[2] = biological target: EPHB1 (UniProt P54762); assay: as above
[3] = biological target: EPHB2 (UniProt P29323); assay: as above
[4] = biological target: FGFR1 (UniProt P11362); assay: as above
[5] = biological target: FGFR3 (UniProt P22607); assay: as above
[6] = tested on: Fer (mouse); assay: as above
[7] = biological target: Fes (UniProt P07332); assay: as above
[8] = biological target: Fyn (UniProt P06241); assay: as above
[9] = biological target: Hck (UniProt P08631); assay: as above
[10] = biological target: Jak2 (UniProt O60674); assay: as above
[11] = biological target: MERTK (UniProt Q12866); assay: as above
[12] = tested on: c-Abl (mouse); assay: as above
[13] = tested on: c-Src; assay: as above
[14] = biological target: Grb2 SH2 (UniProt P62993); assay: SH2 binding enrichment of the phosphorylated peptide, bacterial display (enrichment ratio); higher = better substrate or ligand; peptides without Tyr show the background
[15] = biological target: SHP2-C SH2; assay: as above
[16] = biological target: c-Src SH2; assay: as above
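For SH2 binding enrichment of the phosphorylated peptide, bacterial display in this document: peptide library displayed on the E. coli surface as eCPX fusions, selected cells deep-sequenced, score is each peptide's frequency after selection divided by its frequency in the input.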
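For phosphorylation enrichment, bacterial display in this document: 11-residue human phosphosite peptides and single-mutation variants displayed on the E. coli surface, counted by deep sequencing, each peptide's frequency after selection divided by its frequency in the unselected input library; frequency after pTyr selection over input frequency; kinase dosed for 20-30% of maximal phosphorylation in three min.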

Sequence of Fyn (P06241 whole entry, looked up): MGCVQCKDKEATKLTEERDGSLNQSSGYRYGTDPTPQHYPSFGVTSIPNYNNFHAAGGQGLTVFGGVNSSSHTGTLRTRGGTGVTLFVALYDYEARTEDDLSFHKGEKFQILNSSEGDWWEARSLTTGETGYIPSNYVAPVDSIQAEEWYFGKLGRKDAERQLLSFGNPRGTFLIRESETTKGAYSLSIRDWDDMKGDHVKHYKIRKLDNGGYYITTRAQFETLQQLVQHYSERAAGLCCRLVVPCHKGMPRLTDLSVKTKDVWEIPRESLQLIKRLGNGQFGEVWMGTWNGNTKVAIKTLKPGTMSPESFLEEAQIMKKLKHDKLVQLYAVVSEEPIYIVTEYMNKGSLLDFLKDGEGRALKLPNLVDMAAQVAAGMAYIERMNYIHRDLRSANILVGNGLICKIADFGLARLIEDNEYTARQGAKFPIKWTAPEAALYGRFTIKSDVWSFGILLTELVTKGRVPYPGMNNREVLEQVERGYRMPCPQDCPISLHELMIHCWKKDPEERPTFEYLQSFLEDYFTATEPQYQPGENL
Sequence of FGFR3 (P22607 whole entry, looked up): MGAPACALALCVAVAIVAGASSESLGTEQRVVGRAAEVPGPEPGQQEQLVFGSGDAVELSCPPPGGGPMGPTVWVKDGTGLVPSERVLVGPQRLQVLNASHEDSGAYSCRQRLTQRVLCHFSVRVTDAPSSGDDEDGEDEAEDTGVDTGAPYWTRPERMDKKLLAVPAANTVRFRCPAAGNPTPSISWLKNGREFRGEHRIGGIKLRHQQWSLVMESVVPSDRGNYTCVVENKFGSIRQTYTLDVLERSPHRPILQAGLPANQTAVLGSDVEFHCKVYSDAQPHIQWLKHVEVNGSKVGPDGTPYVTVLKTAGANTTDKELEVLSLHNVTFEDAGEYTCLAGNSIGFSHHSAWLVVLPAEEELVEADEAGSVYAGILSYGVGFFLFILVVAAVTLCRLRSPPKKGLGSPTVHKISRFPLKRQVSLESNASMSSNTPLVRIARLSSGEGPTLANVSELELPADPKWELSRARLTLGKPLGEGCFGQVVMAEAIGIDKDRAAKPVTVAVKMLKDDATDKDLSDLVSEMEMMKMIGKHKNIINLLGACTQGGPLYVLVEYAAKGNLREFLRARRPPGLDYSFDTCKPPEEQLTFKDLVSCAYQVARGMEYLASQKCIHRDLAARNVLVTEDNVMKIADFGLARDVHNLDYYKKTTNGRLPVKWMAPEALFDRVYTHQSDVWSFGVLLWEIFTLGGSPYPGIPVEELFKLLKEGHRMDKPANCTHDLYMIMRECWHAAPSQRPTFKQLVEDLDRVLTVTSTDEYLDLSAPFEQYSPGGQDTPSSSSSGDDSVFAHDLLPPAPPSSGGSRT
Sequence of Hck (P08631 whole entry, looked up): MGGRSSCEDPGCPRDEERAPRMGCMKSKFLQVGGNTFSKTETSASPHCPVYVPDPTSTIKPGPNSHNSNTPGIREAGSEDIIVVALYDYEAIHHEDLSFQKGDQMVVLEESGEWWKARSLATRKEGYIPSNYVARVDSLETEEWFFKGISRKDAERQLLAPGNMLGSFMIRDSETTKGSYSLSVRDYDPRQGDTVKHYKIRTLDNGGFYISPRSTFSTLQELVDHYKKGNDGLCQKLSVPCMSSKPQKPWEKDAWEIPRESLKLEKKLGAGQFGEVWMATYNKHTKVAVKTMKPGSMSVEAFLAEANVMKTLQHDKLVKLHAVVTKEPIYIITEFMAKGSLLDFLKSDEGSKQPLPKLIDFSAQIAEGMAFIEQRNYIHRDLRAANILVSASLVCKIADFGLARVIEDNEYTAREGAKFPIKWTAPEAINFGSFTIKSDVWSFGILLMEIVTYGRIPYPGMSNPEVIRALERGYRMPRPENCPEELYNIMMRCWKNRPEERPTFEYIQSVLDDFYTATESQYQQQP
Sequence of Jak2 (O60674 whole entry, looked up): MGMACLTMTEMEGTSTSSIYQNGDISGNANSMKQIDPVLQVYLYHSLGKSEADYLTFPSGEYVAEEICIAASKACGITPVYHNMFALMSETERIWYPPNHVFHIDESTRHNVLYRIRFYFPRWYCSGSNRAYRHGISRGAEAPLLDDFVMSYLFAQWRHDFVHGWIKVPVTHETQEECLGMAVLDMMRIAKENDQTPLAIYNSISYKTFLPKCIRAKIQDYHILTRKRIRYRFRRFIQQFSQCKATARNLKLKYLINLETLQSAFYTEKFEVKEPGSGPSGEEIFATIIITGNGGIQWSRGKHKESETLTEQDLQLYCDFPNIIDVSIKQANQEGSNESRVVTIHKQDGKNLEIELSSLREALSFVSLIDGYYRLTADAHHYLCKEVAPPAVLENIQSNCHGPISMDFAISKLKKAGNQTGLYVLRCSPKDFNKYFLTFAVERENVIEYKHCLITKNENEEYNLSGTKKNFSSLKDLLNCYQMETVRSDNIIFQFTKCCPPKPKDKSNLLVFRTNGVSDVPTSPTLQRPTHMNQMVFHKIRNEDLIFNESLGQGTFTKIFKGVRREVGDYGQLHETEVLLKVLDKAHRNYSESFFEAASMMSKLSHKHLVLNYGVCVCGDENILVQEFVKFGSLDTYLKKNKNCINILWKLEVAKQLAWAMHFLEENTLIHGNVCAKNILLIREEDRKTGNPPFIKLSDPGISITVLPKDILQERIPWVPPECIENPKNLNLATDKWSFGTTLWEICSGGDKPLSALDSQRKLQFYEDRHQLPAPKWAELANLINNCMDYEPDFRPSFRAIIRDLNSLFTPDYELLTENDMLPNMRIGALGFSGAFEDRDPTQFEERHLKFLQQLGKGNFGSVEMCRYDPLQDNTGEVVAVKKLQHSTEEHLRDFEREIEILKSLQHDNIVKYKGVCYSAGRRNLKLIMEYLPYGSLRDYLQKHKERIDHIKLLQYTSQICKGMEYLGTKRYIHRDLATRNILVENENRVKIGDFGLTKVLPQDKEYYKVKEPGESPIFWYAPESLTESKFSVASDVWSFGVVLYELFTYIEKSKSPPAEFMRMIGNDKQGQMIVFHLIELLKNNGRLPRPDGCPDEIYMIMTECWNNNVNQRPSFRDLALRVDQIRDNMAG
Sequence of Fes (P07332 whole entry, looked up): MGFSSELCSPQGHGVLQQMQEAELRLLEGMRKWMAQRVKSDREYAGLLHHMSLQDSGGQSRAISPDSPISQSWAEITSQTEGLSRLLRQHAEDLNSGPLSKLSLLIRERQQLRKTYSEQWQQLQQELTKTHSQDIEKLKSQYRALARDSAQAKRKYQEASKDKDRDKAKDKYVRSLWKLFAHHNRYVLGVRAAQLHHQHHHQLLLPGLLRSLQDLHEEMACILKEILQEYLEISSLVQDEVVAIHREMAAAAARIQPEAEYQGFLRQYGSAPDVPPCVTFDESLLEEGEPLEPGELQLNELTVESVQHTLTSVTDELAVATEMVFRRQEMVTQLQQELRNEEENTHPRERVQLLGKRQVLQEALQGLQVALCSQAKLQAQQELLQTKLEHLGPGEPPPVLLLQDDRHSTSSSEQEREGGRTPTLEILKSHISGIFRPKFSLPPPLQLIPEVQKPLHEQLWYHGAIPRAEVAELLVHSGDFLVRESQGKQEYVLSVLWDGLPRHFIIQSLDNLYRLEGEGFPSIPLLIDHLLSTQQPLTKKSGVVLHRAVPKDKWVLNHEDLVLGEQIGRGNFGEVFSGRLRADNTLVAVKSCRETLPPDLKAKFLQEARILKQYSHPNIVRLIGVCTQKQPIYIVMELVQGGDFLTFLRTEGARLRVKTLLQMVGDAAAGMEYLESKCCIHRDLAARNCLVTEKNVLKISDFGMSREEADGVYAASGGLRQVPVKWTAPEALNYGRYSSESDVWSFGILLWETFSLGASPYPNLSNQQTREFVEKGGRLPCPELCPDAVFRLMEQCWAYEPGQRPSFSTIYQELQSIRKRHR
Sequence of EPHB1 (P54762 whole entry, looked up): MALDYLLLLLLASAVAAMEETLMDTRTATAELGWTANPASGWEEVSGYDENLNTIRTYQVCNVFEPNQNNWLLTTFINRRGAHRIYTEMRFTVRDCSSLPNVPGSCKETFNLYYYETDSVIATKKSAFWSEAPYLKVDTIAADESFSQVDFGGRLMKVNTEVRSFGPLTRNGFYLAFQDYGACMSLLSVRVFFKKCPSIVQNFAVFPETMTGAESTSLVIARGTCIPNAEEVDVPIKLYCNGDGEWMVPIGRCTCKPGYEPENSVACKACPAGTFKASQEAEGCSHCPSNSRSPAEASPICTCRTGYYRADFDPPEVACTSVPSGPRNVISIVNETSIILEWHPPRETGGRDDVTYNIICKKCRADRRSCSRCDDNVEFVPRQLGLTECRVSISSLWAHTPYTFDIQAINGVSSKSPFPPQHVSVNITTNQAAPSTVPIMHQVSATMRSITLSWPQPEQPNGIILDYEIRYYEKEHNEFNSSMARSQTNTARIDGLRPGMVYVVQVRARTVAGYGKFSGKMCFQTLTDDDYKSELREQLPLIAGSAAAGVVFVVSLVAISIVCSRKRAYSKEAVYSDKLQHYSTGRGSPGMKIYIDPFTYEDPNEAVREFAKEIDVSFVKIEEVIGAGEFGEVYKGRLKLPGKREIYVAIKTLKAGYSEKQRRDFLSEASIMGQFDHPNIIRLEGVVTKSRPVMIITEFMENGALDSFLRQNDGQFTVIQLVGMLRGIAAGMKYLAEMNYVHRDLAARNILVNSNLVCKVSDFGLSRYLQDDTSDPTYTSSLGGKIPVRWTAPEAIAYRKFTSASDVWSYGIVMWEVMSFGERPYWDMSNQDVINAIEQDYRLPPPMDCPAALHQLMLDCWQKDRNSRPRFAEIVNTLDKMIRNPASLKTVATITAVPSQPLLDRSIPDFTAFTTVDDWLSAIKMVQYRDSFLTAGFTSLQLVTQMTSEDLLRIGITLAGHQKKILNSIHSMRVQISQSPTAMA

Row | Sequence | SH2 binding enrichment [14] | SH2 binding enrichment [15] | SH2 binding enrichment [16] | phosphorylation enrichment [1] | phosphorylation enrichment [2] | phosphorylation enrichment [3] | phosphorylation enrichment [4] | phosphorylation enrichment [5] | phosphorylation enrichment [6] | phosphorylation enrichment [7] | phosphorylation enrichment [8] | phosphorylation enrichment [9] | phosphorylation enrichment [10] | phosphorylation enrichment [11] | phosphorylation enrichment [12] | phosphorylation enrichment [13]
1 | KAIMTYVFSFY [ACTN4_Y260_S262F] | 0.987 | 1.08 | 0.561 | 1.19 | 0.63 | 0.592 | 0.559 | 0.794 | 0.54 | 1.27 | 0.438 | 0.464 | 1.06 | 0.436 | 0.966 | 0.507
2 | KALKQYRAGPS [DDX27_Y763] | 1.04 | 0.804 | 0.438 | 0.473 | 0.34 | 0.312 | 0.355 | 0.368 | 0.389 | 0.553 | 0.43 | 0.454 | 0.545 | 0.391 | 0.531 | 0.407
3 | KDFETYQPFQN [CTNND2_Y1157_YF] | 0.948 | 0.699 | 0.544 | 1.13 | 0.69 | 0.786 | 0.54 | 0.603 | 0.612 | 1.02 | 4.76 | 5.76 | 0.869 | 0.463 | 0.741 | 4.18
4 | KDFETYQSFQN [CTNND2_Y1157_P1159S_YF] | 0.846 | 0.816 | 0.523 | 0.958 | 2 | 1.17 | 0.5 | 0.691 | 0.493 | 0.984 | 6.89 | 5.29 | 0.798 | 0.484 | 0.668 | 4.94
5 | KDKLPYPYDDP [GPX2_Y125] | 0.889 | 0.757 | 1.67 | 1 | 0.599 | 0.487 | 0.562 | 0.655 | 0.455 | 1.17 | 0.414 | 0.435 | 1.04 | 0.42 | 0.584 | 0.486
6 | KEKLCYVALDF [ACTA1_Y220] | 0.727 | 1.04 | 0.46 | 1.26 | 0.737 | 0.676 | 2.4 | 2.15 | 1.29 | 1.17 | 1.03 | 1.27 | 2.68 | 4.72 | 0.877 | 1.81
7 | KFMVGYEMLAK [GALT_Y339_Q344K] | 0.867 | 0.544 | 1.7 | 0.914 | 0.477 | 0.604 | 0.776 | 0.631 | 0.349 | 1.03 | 0.507 | 0.586 | 0.698 | 0.407 | 0.51 | 0.406
8 | KGEDFYCVTFH [FHL1_Y149_C153Y_YF] | 1.03 | 0.799 | 0.515 | 1.48 | 0.825 | 0.891 | 0.952 | 1.12 | 1.54 | 1.48 | 1.78 | 1.19 | 1.21 | 2.82 | 0.895 | 1.47
9 | KKCTRYIDCDR [ASPA_Y64_L69R] | 0.974 | 0.633 | 0.839 | 0.832 | 0.402 | 0.445 | 0.417 | 0.542 | 0.406 | 1 | 0.323 | 0.37 | 0.691 | 0.461 | 0.72 | 0.427
10 | KLIMECLPFGS [JAK2_Y931_Y931C_YF] | 0.706 | 0.491 | 0.559 | 1.24 | 0.969 | 0.588 | 0.576 | 0.858 | 0.622 | 1.39 | 0.619 | 0.652 | 1.57 | 0.521 | 0.96 | 0.611
11 | KLIMEYLPYGS [JAK2_Y931] | 0.845 | 0.742 | 0.762 | 0.989 | 0.493 | 0.632 | 0.543 | 0.68 | 0.405 | 1.02 | 0.518 | 0.51 | 0.945 | 0.395 | 0.62 | 0.564
12 | KLVQLYGVCTK [BTK_Y461] | 1.07 | 0.981 | 0.882 | 0.848 | 1.33 | 1.43 | 0.439 | 0.532 | 0.439 | 0.887 | 1.25 | 1.91 | 0.773 | 0.892 | 0.686 | 1.25
13 | KNDSIYVVKGN [KIT_Y823_N822I] | 0.848 | 0.707 | 0.507 | 0.574 | 0.339 | 0.689 | 0.39 | 0.469 | 0.47 | 0.647 | 0.786 | 1.35 | 0.516 | 0.443 | 0.47 | 0.922
14 | KSVVTYSPTTG [ITGB3BP_Y32_I30V] | 0.814 | 0.668 | 0.397 | 0.478 | 0.427 | 0.416 | 0.375 | 0.442 | 0.369 | 0.527 | 0.401 | 0.372 | 0.489 | 0.423 | 0.618 | 0.431
15 | KVDKECEVRVR [GHR_Y226_Y226C] | 0.889 | 0.842 | 0.575 | 0.739 | 0.513 | 0.569 | 0.502 | 0.556 | 0.478 | 0.832 | 0.421 | 0.414 | 0.821 | 0.355 | 0.638 | 0.446

Further lines, with some results ahead:

Row | SH2 binding enrichment [14] | SH2 binding enrichment [15] | SH2 binding enrichment [16] | Sequence | phosphorylation enrichment [1] | phosphorylation enrichment [2] | phosphorylation enrichment [3] | phosphorylation enrichment [4] | phosphorylation enrichment [5] | phosphorylation enrichment [6] | phosphorylation enrichment [7] | phosphorylation enrichment [8] | phosphorylation enrichment [9] | phosphorylation enrichment [10] | phosphorylation enrichment [11] | phosphorylation enrichment [12] | phosphorylation enrichment [13]
16 | 1.01 | 0.793 | 0.467 | IVLRSYPASDH [NID2_Y449_G453D] | 0.966 | 0.543 | 0.495 | 0.496 | 0.546 | 0.44 | 0.823 | 0.478 | 0.44 | 0.743 | 0.465 | 0.583 | 0.416
17 | 0.875 | 1.03 | 7.79 | IVRSLYEDLED [VHL_Y185] | 1.19 | 0.584 | 0.573 | 0.505 | 0.73 | 1.17 | 1.08 | 0.509 | 0.564 | 1.01 | 0.424 | 0.68 | 0.393
18 | 1.94 | 1.85 | 1.72 | KACKHYLTKRT [ZBTB5_Y118_T121K] | 0.667 | 0.493 | 0.662 | 0.629 | 1.19 | 0.668 | 1.17 | 0.595 | 0.582 | 1.3 | 0.605 | 1.05 | 0.581
19 | 0.792 | 0.853 | 0.504 | KDAGDYKFKAK [LRIT3_Y326_C328Y_YF] | 0.406 | 0.345 | 0.259 | 0.421 | 0.362 | 0.278 | 0.613 | 0.322 | 0.38 | 0.392 | 0.443 | 0.338 | 0.305
20 | 1.18 | 1.09 | 0.697 | KDHLDYKYQPR [SOX9_Y172_P170L] | 0.585 | 0.419 | 0.448 | 0.462 | 0.629 | 0.445 | 0.704 | 0.441 | 0.415 | 0.452 | 0.418 | 0.451 | 0.433
21 | 0.835 | 0.813 | 0.516 | KDHPDYKFQAR [SOX10_Y171_P175A_YF] | 0.757 | 0.409 | 0.408 | 0.466 | 0.489 | 0.485 | 0.658 | 0.458 | 0.482 | 0.559 | 0.405 | 0.626 | 0.489
22 | 0.977 | 0.775 | 0.493 | KDQPDYKYQPR [SOX9_Y172_H169Q] | 0.705 | 0.437 | 0.415 | 0.431 | 0.557 | 0.491 | 0.643 | 0.446 | 0.378 | 0.617 | 0.415 | 0.519 | 0.396
23 | 0.79 | 0.502 | 0.891 | KFVKMYDNHQL [MYO9A_Y203_YF] | 0.586 | 0.442 | 0.482 | 0.418 | 0.512 | 0.458 | 0.572 | 0.377 | 0.424 | 0.402 | 0.532 | 0.438 | 0.378
24 | 0.769 | 0.612 | 0.428 | KGSEGYLAAIF [NF1_Y2503_T2507I_YF] | 0.683 | 0.54 | 0.411 | 0.433 | 0.537 | 0.432 | 0.83 | 0.421 | 0.398 | 0.815 | 0.422 | 0.61 | 0.421
25 | 1.12 | 1.07 | 0.611 | KILGRYFETSS [PAX2_Y72_G76S_YF] | 0.648 | 0.424 | 0.406 | 0.469 | 0.633 | 0.432 | 0.694 | 0.374 | 0.508 | 0.706 | 0.358 | 0.529 | 0.341
26 | 0.89 | 0.726 | 1.62 | KILGRYYETSS [PAX2_Y72_G76S] | 0.568 | 0.428 | 0.502 | 0.435 | 0.541 | 0.447 | 0.65 | 0.424 | 0.344 | 0.595 | 0.453 | 0.613 | 0.51
27 | 0.766 | 0.632 | 0.666 | KKGMIYGGGGG [PSME1_Y249_T244K] | 0.467 | 0.3 | 0.363 | 0.407 | 0.359 | 0.365 | 0.495 | 0.388 | 0.466 | 0.487 | 0.381 | 0.447 | 0.442
28 | 1.1 | 2.41 | 0.869 | KLVRLYAVVTR [LYN_Y306] | 1.35 | 0.799 | 0.633 | 0.483 | 0.794 | 0.474 | 1.14 | 0.402 | 0.49 | 1.15 | 0.497 | 0.971 | 0.611
29 | 1.76 | 1.75 | 1.53 | KMKGDYYRYLA [YWHAG_Y130] | 0.647 | 1.45 | 1.36 | 8.74 | 5.52 | 0.393 | 0.747 | 0.594 | 0.816 | 2.55 | 2.1 | 0.705 | 0.73
30 | 0.912 | 0.834 | 0.6 | KNNDGNIDFAE [MCFD2_Y135_Y135N_YF] | 1.07 | 0.504 | 0.673 | 0.447 | 0.683 | 0.525 | 1.26 | 0.558 | 0.539 | 1.21 | 0.589 | 1 | 0.462
31 | 1.18 | 0.863 | 0.739 | KQFWRYFPGNL [SLC25A4_Y112_A114P] | 0.904 | 0.625 | 0.521 | 0.444 | 0.676 | 0.469 | 1.02 | 0.35 | 0.524 | 0.919 | 0.402 | 0.695 | 0.496
32 | 0.711 | 0.681 | 0.503 | KRIKSYNQEND [RPGRIP1L_Y448_L447S] | 0.436 | 0.442 | 0.341 | 0.396 | 0.395 | 0.416 | 0.53 | 0.358 | 0.33 | 0.466 | 0.43 | 0.454 | 0.409
33 | 0.891 | 0.715 | 0.497 | KSSDVYVSFDF [SORL1_Y136_YF] | 1.21 | 1.73 | 1.11 | 3.78 | 2.81 | 4.79 | 1.22 | 5.77 | 3.02 | 0.983 | 3.34 | 0.935 | 4.3
